Laboratory results taken from paper PMC2824085, “Identification of Novel Contributions to High-affinity Glycoprotein–Receptor Interactions using Engineered Ligands” (Journal of Molecular Biology, 2010).

What was measured:
[1] = target: the molecule itself; assay: cross-linking + SEC; chemical crosslinking and gel filtration of the extracellular domain of MGL expressed in bacteria
soybean agglutinin = target: T1, soybean agglutinin (soybean, UniProt P05046 33-285, a single, uniform Man9GlcNAc2 oligosaccharide on each subunit); assay: SPR; BiaCore 3000, CM5 chip; SBA or its glycopeptide amine-coupled, monomeric CRD of DC-SIGN flowed over; steady state, simple saturation model with linear background; 10 mM Hepes, 150 mM NaCl, 5 mM CaCl2, 0.005% P20, pH 7.4, 25 °C; conditions: both partners purified
T1 construct: also called SBA; intact soybean agglutinin
T1 sequence (P05046 33-285): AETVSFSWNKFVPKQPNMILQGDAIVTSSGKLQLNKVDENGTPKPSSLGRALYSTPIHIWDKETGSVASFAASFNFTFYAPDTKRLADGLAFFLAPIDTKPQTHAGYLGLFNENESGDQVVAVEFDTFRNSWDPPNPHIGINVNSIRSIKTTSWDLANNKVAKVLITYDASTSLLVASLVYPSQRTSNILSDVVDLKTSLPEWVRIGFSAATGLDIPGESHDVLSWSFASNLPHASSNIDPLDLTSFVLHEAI

B1: trimeric extracellular domain (ECD) of rat macrophage galactose lectin (MGL) (domain or fragment)
chain: AQNSQLRRDLETLRTTLDNTTSNTKAELQALASRGDSLQTGINSLKVEVDDHGQELQAGRGLSQKVASLESTVEKKEQTLRTDLSEITDRVQQLGKDLKTLTCQLASLKNNGSAVACCPLHWMEHEGSCYWFSQSGKPWPEADKYCQLENSNLVVVNSLAEQNFLQTHMGSVVTWIGLTDQNGPWRWVDGTDYEKGFTHWAPKQPDNWYGHGLGGGEDCAHFTSDGRWNDDVCQRPYRWVCEMKLAKDS
notes: extra alanine residue appended at the N-terminus; rat macrophage galactose lectin, extracellular domain from residue 59 to the C-terminus; also called extracellular domain of MGL; source: expressed in bacteria, T7 promoter system
Question: How did the “stoichiometry N” value [1] turn out when B1 was run?
Answer: 3

B2: monomeric carbohydrate-recognition domain (CRD) from DC-SIGN (domain or fragment, UniProt Q9NNX6 250-404, looked up)
chain: ERLCHPCPWEWTFFQGNCYFMSNSQRNWHDSITACKEVGAQLVVIKSAEEQNFLQLQSSRSNRFTWMGLSDLNQEGTWQWVDGSPLLPSFKQYWNRGEPNNVGEEDCAEFSGNGWNDDKCNLAKFWICKKSAASCSRDEEQFLSPAPATPNPPPA
notes: DC-SIGN, carbohydrate-recognition domain; it calls the CRD monomeric; also called monomeric CRD; dendritic cell-specific intercellular adhesion molecule 3-grabbing nonintegrin CRD
Question: For B2, which Kd (soybean agglutinin) is on record?
Answer: 4 µM
